Results published in publication PMC5389548.

Molecular target: thrombin (human, UniProt P00734;P00734 328-363;364-622)
Test: microarray sandwich fluorescence

Row | Binder | Kd [nM]
1 | GGTTGGTGTGGTTGG (structured_DNA, 2'F-ANA, positions lost in text) [sequence 4] | 41 ± 3.7
2 | GGTTGGTGTGGTTGG (structured_DNA, 2'F-ANA, positions lost in text) [sequence 3] | 39 ± 10
3 | GGTTGGTGTGGTTGG (structured_DNA, eight 2'F-ANA, positions lost in text) [sequence 6] | 29 ± 2.7
4 | GGTTGGTGTGGTTGG (structured_DNA, ten 2'F-ANA, positions lost in text) [sequence 11] | 53 ± 16
5 | GGTTGGTGTGGTTGG (structured_DNA, ten 2'F-ANA, positions lost in text) [sequence 10] | 45 ± 14
6 | GGTTGGTGTGGTTGG (structured_DNA, 2'F-ANA at T3, G8, T12; full pattern lost in text) [sequence 1] | 28 ± 1.6
7 | GGTTGGTGTGGTTGG (structured_DNA, 2'F-ANA at T3, G8, T12; full pattern lost in text) [sequence 2] | 28 ± 1.2
8 | GGTTGGTGTGGTTGG (structured_DNA, 2'F-araT, positions lost in text) [sequence 15] | 85 ± 21
9 | GGTTGGTGTGGTTGG (structured_DNA) [TBA1 control] | 93 ± 23
10 | GGTTGGTGTGGTTGG (structured_DNA, 2'F-araT, positions lost in text) [sequence 16] | 117 ± 44
